Data on 1 molecule can be found in paper PMC5549993, “Bacterial effector NleL promotes enterohemorrhagic E. coli-induced attaching and effacing lesions by ubiquitylating and inactivating JNK” (PLoS Pathogens, 2017).

Assay [1] has as its target T1, GST-tagged NleL C753A mutant (E. coli O157:H7 Sakai strain, UniProt A0A0H3JDV8 1-782, C753A).
T1 construct: also called GST-NleL-CA; NleL-CA
T1 sequence: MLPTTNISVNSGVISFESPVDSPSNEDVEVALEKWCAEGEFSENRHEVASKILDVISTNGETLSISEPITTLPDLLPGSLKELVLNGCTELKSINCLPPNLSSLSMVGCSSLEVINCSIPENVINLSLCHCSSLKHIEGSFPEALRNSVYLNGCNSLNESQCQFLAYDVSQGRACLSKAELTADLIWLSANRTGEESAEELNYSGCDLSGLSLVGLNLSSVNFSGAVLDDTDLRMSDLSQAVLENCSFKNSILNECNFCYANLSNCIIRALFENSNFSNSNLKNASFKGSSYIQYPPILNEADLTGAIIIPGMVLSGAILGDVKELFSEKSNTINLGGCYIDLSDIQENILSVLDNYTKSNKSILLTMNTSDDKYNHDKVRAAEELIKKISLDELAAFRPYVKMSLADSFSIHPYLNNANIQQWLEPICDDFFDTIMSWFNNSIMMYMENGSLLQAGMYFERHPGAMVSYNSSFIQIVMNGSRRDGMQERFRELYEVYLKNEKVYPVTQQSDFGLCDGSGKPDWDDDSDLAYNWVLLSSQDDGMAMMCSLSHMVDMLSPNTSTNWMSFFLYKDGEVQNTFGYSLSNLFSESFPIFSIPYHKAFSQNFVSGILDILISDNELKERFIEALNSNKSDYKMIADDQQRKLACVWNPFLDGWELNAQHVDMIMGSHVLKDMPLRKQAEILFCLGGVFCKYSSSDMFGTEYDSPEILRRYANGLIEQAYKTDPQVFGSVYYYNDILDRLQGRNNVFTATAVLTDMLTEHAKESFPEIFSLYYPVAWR
Kind of assay: pull-down. Conditions: both partners purified.

In assay [2] the target is T2, GST-tagged wild-type NleL (full length) (E. coli O157:H7 Sakai strain, UniProt A0A0H3JDV8 1-782).
T2 construct: also called GST-NleL; EspX7; source: E. coli BL21 (DE3), purified (Glutathione Sepharose)
T2 sequence: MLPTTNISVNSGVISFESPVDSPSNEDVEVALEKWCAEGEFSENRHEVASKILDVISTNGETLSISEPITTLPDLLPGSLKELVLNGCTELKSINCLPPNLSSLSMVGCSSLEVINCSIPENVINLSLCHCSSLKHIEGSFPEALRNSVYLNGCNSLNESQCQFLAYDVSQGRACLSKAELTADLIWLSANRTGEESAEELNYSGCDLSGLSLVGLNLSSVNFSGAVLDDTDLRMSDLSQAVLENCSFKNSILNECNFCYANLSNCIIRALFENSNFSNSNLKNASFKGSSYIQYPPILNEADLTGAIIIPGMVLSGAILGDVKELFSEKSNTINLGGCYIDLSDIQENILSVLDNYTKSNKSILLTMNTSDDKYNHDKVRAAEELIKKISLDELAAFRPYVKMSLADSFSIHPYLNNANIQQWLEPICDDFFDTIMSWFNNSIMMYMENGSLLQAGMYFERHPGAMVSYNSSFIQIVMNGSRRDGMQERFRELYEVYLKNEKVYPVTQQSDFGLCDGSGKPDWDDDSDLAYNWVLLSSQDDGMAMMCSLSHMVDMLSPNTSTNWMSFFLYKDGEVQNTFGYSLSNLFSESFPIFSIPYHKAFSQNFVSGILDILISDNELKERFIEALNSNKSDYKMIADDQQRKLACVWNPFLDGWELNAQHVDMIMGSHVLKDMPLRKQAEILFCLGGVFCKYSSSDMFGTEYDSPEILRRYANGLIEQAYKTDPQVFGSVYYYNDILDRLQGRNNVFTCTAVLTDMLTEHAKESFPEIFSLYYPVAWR
Kind of assay: pull-down. Conditions: both partners purified.

B1: His6-tagged JNK1 purified from bacteria (enzyme, human, UniProt P45983-2 1-384, looked up)
chain: MSRSKRDNNFYSVEIGDSTFTVLKRYQNLKPIGSGAQGIVCAAYDAILERNVAIKKLSRPFQNQTHAKRAYRELVLMKCVNHKNIIGLLNVFTPQKSLEEFQDVYIVMELMDANLCQVIQMELDHERMSYLLYQMLCGIKHLHSAGIIHRDLKPSNIVVKSDCTLKILDFGLARTAGTSFMMTPYVVTRYYRAPEVILGMGYKENVDLWSVGCIMGEMVCHKILFPGRDYIDQWNKVIEQLGTPCPEFMKKLQPTVRTYVENRPKYAGYSFEKLFPDVLFPADSEHNKLKASQARDLLSKMLVIDASKRISVDEALQHPYINVWYDPSEAEAPPPKIPDKQLDEREHTIEEWKELIYKEVMDLEERTKNGVIRGQPSPLAQVQQ
notes: human JNK1α1 (MAPK8), in pET28a with 6x His tag; also called His-JNK1; source: E. coli BL21 (DE3), purified (Ni-NTA)
In the case of B1, the binding result in assay [1] and in assay [2] was “binds” throughout.
